Patent US10221225B2, “Peptides and combination of peptides and scaffolds thereof for use in immunotherapy against colorectal carcinoma (CRC) and other cancers” (immatics biotechnologies GmbH, priority 2015, dated 2019)

How the values were obtained:
[1] = system: CD8+ T-cells; experiment: In vitro T-cell priming assay with aAPCs loaded with peptide/MHC and anti-CD28, pMHC multimer readout; format: cell-based, human; conditions: in vitro immunogenicity; for Wells positive: HLA-A*02 restricted peptides; for donors (percentage of positive donors) / wells (percentage of positive wells): HLA class I peptides
From the text: In order to obtain information regarding the immunogenicity of the TUMAPs of the present invention, the inventors performed investigations using an in vitro T-cell priming assay based on repeated stimulations of CD8+ T-cells with artificial antigen presenting cells (aAPCs) loaded with peptide/MHC complexes and anti-CD28 antibody.
In order to perform in vitro stimulations by artificial antigen presenting cells loaded with peptide-MHC complex (pMHC) and anti-CD28 antibody, the inventors first isolated CD8+ T-cells from fresh HLA-A*02 leukopheresis products via positive selection using CD8 microbeads (Miltenyi Biotec, Bergisch-Gladbach, Germany) of healthy donors obtained from the University clinics Mannheim, Germany, after informed consent.
PBMCs and isolated CD8+ lymphocytes were incubated in T-cell medium (TCM) until use consisting of RPMI-Glutamax (Invitrogen, Karlsruhe, Germany) supplemented with 10% heat inactivated human AB serum (PAN-Biotech, Aidenbach, Germany), 100 U/ml Penicillin/100 μg/ml Streptomycin (Cambrex, Cologne, Germany), 1 mM sodium pyruvate (CC Pro, Oberdorla, Germany), 20 μg/ml Gentamycin (Cambrex). 2.5 ng/ml IL-7 (PromoCell, Heidelberg, Germany) and 10 U/ml IL-2 (Novartis Pharma, Nürnberg, Germany) were also added to the TCM at this step.
Generation of pMHC/anti-CD28 coated beads, T-cell stimulations and readout was performed in a highly defined in vitro system using four different pMHC molecules per stimulation condition and 8 different pMHC molecules per readout condition.
The purified co-stimulatory mouse IgG2a anti human CD28 Ab 9.3 (Jung et al., 1987) was chemically biotinylated using Sulfo-N-hydroxysuccinimidobiotin as recommended by the manufacturer (Perbio, Bonn, Germany). Beads used were 5.6 μm diameter streptavidin coated polystyrene particles (Bangs Laboratories, Illinois, USA).
800,000 beads/200 μl were coated in 96-well plates in the presence of 4×12.5 ng different biotin-pMHC, washed and 600 ng biotin anti-CD28 were added subsequently in a volume of 200 μl. Stimulations were initiated in 96-well plates by co-incubating 1×10^6 CD8+ T-cells with 2×10^5 washed coated beads in 200 μl TCM supplemented with 5 ng/ml IL-12 (PromoCell) for 3 days at 37° C. Half of the medium was then exchanged by fresh TCM supplemented with 80 U/ml IL-2 and incubating was continued for 4 days at 37° C. This stimulation cycle was performed for a total of three times. For the pMHC multimer readout using 8 different pMHC molecules per condition, a two-dimensional combinatorial coding approach was used as previously described (Andersen et al., 2012) with minor modifications encompassing coupling to 5 different fluorochromes. Finally, multimeric analyses were performed by staining the cells with Live/dead near IR dye (Invitrogen, Karlsruhe, Germany), CD8-FITC antibody clone SK1 (BD, Heidelberg, Germany) and fluorescent pMHC multimers. For analysis, a BD LSRII SORP cytometer equipped with appropriate lasers and filters was used. Peptide specific cells were calculated as percentage of total CD8+ cells. Evaluation of multimeric analysis was done using the FlowJo software (Tree Star, Oregon, USA). In vitro priming of specific multimer+ CD8+ lymphocytes was detected by comparing to negative control stimulations.

[2] = molecular target: HLA-A*02:01 (Homo sapiens, UniProt P04439, D140Y/D185E/D98H/E176V/E277Q/G131W/G231S/I119V/I121R/I166T/I218V/L300P/L318F/N151K/N90K/P208A/P217A/Q86G/Q94H/R138H/R169H/T345S); experiment: MHC binding assay (UV-ligand exchange, beta2m ELISA, peptide exchange yield); conditions: MHC class I binding score; binding to HLA-A*02:01 ranged by peptide exchange yield (UV-ligand exchange, β2m ELISA)
From the text: Candidate peptides for T cell based therapies according to the present invention were further tested for their MHC binding capacity (affinity). The individual peptide-MHC complexes were produced by UV-ligand exchange, where a UV-sensitive peptide is cleaved upon UV-irradiation, and exchanged with the peptide of interest as analyzed. Only peptide candidates that can effectively bind and stabilize the peptide-receptive MHC molecules prevent dissociation of the MHC complexes. To determine the yield of the exchange reaction, an ELISA was performed based on the detection of the light chain (β2m) of stabilized MHC complexes. The assay was performed as generally described in Rodenko et al. (Rodenko et al., 2006).
96 well MAXISorp plates (NUNC) were coated over night with 2 ug/ml streptavidin in PBS at room temperature, washed 4× and blocked for 1 h at 37° C. in 2% BSA containing blocking buffer. Refolded HLA-A*02:01/MLA-001 monomers served as standards, covering the range of 15-500 ng/ml. Peptide-MHC monomers of the UV-exchange reaction were diluted 100 fold in blocking buffer. Samples were incubated for 1 h at 37° C., washed four times, incubated with 2 ug/ml HRP conjugated anti-β2m for 1 h at 37° C., washed again and detected with TMB solution that is stopped with […]. Absorption was measured at 450 nm. Candidate peptides that show a high exchange yield (preferably higher than 50%, most preferred higher than 75%) are generally preferred for a generation and production of antibodies or fragments thereof, and/or T cell receptors or fragments thereof, as they show sufficient avidity to the MHC molecules and prevent dissociation of the MHC complexes.

Substance	Peptide exchange [2]	Wells positive [1]	donors (percentage of positive donors) [1]	wells (percentage of positive wells) [1]
9 (ILDDHLSRV; listed as Homo sapiens) [compound 9]	″++″ (≥20% = ++)	″+″ (<20% = +)		
220 (KMDPVAYRV; listed as Homo sapiens) [compound 220]			++++ (>=70% = ++++)	+++ (50%-69% = +++)
12 (ALVQGILERV; listed as Homo sapiens) [compound 12]	″+++″ (≥50 = +++)	″++++″ (>= 70% = ++++)		
11 (YLFEKTFNM; listed as Homo sapiens) [compound 11]	″+++″ (≥50 = +++)	″+″ (<20% = +)		
2 (ALLPRYFFL; listed as Homo sapiens) [compound 2]	″++″ (≥20% = ++)	″++++″ (>= 70% = ++++)		
5 (WLFDDGGLTL; listed as Homo sapiens) [compound 5]	″++++″ (≥75% = ++++)	″++″ (20%-49% = ++)		
17 (ALAAARVEL; listed as Homo sapiens) [compound 17]	″+++″ (≥50 = +++)	″++″ (20%-49% = ++)		
1 (ALIKQLFEA; listed as Homo sapiens) [compound 1]	″+++″ (≥50 = +++)	″+″ (<20% = +)		
13 (FLLAEDTKV; listed as Homo sapiens) [compound 13]	″+++″ (≥50 = +++)	″++″ (20%-49% = ++)		
7 (YLTRHLAVL; listed as Homo sapiens) [compound 7]	″++″ (≥20% = ++)	″+″ (<20% = +)		
18 (FLSSLKGGLL; listed as Homo sapiens) [compound 18]	″+++″ (≥50 = +++)	″+″ (<20% = +)		
19 (RLYTKLLNEA; listed as Homo sapiens) [compound 19]	″+++″ (≥50 = +++)	″+++″ (50%-69% = +++)		
21 (VLIDHRWVL; listed as Homo sapiens) [compound 21]	″+++″ (≥50 = +++)	″+″ (<20% = +)		
22 (GLIDEVMVL; listed as Homo sapiens) [compound 22]	″+++″ (≥50 = +++)	″++″ (20%-49% = ++)		
10 (RMYNKIFAI; listed as Homo sapiens) [compound 10]	″+++″ (≥50 = +++)	″++++″ (>= 70% = ++++)		
219 (FLDEKGRCV; listed as Homo sapiens) [compound 219]			+++ (50%-69% = +++)	++ (20%-49% = ++)
31 (LLYGKYVSV; listed as Homo sapiens) [compound 31]	″+++″ (≥50 = +++)	″++″ (20%-49% = ++)		
27 (LLADEDSSYL; listed as Homo sapiens) [compound 27]	″++″ (≥20% = ++)			

Now from value to substance, other results behind:

Peptide exchange [2]	Substance	Wells positive [1]	donors (percentage of positive donors) [1]	wells (percentage of positive wells) [1]
″++″ (≥20% = ++)	47 (KLYERCEVV; listed as Homo sapiens) [compound 47]	″+″ (<20% = +)		
″+++″ (≥50 = +++)	127 (RLAELTVDEFLA; listed as Homo sapiens) [compound 127]	″+″ (<20% = +)		
″++″ (≥20% = ++)	133 (RTFEKIEEV; listed as Homo sapiens) [compound 133]	″+″ (<20% = +)		
″++++″ (≥75% = ++++)	42 (SILDDSFKL; listed as Homo sapiens) [compound 42]	″+″ (<20% = +)		
″++++″ (≥75% = ++++)	141 (AVIEHLERL; listed as Homo sapiens) [compound 141]	″+″ (<20% = +)		
″++″ (≥20% = ++)	32 (KLNTETFGV; listed as Homo sapiens) [compound 32]	″++″ (20%-49% = ++)		
″++″ (≥20% = ++)	123 (KTLERSYLL; listed as Homo sapiens) [compound 123]	″+″ (<20% = +)		
″+++″ (≥50 = +++)	136 (KLFDIFSQQV; listed as Homo sapiens) [compound 136]	″++″ (20%-49% = ++)		
″++″ (≥20% = ++)	132 (ALLNAILHSA; listed as Homo sapiens) [compound 132]	″+″ (<20% = +)		
″+++″ (≥50 = +++)	59 (LLTDNVVKL; listed as Homo sapiens) [compound 59]	″+″ (<20% = +)		
″++″ (≥20% = ++)	38 (SLAPTPVSA; listed as Homo sapiens) [compound 38]	″+″ (<20% = +)		
″+++″ (≥50 = +++)	142 (SLVQRVETI; listed as Homo sapiens) [compound 142]	″+″ (<20% = +)		
″++″ (≥20% = ++)	64 (KTLGKLWRL; listed as Homo sapiens) [compound 64]	″++++″ (>= 70% = ++++)		
″+++″ (≥50 = +++)	37 (GLFAGLGGAGA; listed as Homo sapiens) [compound 37]	″+″ (<20% = +)		
″+++″ (≥50 = +++)	150 (RLADLEALKV; listed as Homo sapiens) [compound 150]	″++″ (20%-49% = ++)		
″+++″ (≥50 = +++)	172 (LLLDTVTMQV; listed as Homo sapiens) [compound 172]			
″+++″ (≥50 = +++)	121 (SLAPNIISQL; listed as Homo sapiens) [compound 121]			
″++″ (≥20% = ++)	43 (TLDAAQPRV; listed as Homo sapiens) [compound 43]			
″+++″ (≥50 = +++)	81 (ALLSQQTHL; listed as Homo sapiens) [compound 81]			
″++++″ (≥75% = ++++)	182 (SLNKWIFTV; listed as Homo sapiens) [compound 182]			
″++″ (≥20% = ++)	69 (GMLNEAEGKAIKL; listed as Homo sapiens) [compound 69]			
″++++″ (≥75% = ++++)	93 (SLQELRLLL; listed as Homo sapiens) [compound 93]			
″+++″ (≥50 = +++)	149 (YQFDKVGILTL; listed as Homo sapiens) [compound 149]			
″++″ (≥20% = ++)	52 (ALDSSNSMQTI; listed as Homo sapiens) [compound 52]			
